Data published in PMC5340921.

Target: T1, PPR10 (maize, UniProt B8Y6I0 38-786)
T1 sequence: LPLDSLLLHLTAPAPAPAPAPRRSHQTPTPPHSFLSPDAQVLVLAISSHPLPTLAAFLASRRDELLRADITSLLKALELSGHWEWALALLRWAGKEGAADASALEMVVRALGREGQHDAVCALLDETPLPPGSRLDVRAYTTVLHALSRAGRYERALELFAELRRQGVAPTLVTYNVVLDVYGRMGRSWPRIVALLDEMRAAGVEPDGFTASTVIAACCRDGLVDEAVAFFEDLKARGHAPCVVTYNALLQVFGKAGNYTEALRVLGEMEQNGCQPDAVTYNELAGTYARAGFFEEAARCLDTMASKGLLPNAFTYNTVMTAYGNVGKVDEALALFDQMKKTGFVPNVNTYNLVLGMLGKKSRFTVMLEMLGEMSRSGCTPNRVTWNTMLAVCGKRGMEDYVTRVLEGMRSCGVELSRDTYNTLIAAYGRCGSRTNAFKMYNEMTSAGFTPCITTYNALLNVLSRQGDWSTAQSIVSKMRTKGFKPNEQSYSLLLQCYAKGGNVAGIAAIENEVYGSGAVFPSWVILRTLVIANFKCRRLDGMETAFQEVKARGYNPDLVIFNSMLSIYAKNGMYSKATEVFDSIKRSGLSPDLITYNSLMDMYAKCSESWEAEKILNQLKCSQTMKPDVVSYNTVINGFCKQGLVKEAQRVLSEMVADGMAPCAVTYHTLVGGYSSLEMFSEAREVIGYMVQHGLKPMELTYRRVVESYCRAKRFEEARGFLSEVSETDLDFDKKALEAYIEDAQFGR
Test: EMSA

B1: atpH WT 17-mer (ssRNA)
RNA: GUAUCCUUAACCAUUUC
B1: binds.
